The values below come from patent US20240209058A1 (published 2024).

Assay [1] addresses T1, human mesothelin (MSLN) peptide on HLA-A*02:01 (human).
T1 peptide: SLLFLLFSL
Briefly: multimer staining.

The target of assay [2] is T2, human mesothelin (MSLN) peptide on HLA-A*02:01 (human).
T2 peptide: VLPLTVAEV
Nature of the assay: multimer staining.

B1: MSLN20-28 clone 2 (TCR, V domains shown)
Valpha: DQQVKQNSPSLSVQEGRISILNCDYTNSMFDYFLWYKKYPAEGPTFLISISSIKDKNEDGRFTVFLNKSAKHLSLHIVPSQPGDSAVYFCAASGNTDKLIFGTGTRLQVFP
Vbeta: EPEVTQTPSHQVTQMGQEVILRCVPISNHLYFYWYRQILGQKVEFLVSFYNNEISEKSEIFDDQFSVERPDGSNFTLKIRSTKLEDSAMYFCASRPGWSYEQYFGPGTRLTVT
In the case of B1, in assay [1], the binding result is given as “recognises”.

B2: MSLN20-28 clone 8 (TCR, V domains shown)
Valpha: AQSVTQLDSQVPVFEEAPVELRCNYSSSVSVYLFWYVQYPNQGLQLLLKYLSGSTLVKGINGFEAEFNKSQTSFHLRKPSVHISDTAEYFCAVIPNNNARLMFGDGTQLVVKP
Vbeta: ETGVTQTPRHLVMGMTNKKSLKCEQHLGHNAMYWYKQSAKKPLELMFVYNFKEQTENNSVPSRFSPECPNSSHLFLHLHTLQPEDSALYLCASGQGTEAFFGQGTRLTVV
With B2, in assay [1], the binding result is “recognises”.

B3: MSLN530-538 clone 5 (TCR, V domains shown)
Valpha: TQLLEQSPQFLSIQEGENLTVYCNSSSVFSSLQWYRQEPGEGPVLLVTVVTGGEVKKLKRLTFQFGDARKDSSLHITAAQTGDTGLYLCAGGMESGGGADGLTFGKGTHLIIQP
Vbeta: DTGVSQNPRHKITKRGQNVTFRCDPISEHNRLYWYRQTLGQGPEFLTYFQNEAQLEKSRLLSDRFSAERPKGSFSTLEIQRTEQGDSAMYLCASTSTGGLKNTEAFFGQGTRLTVV
B3: the binding result in assay [2] was “recognises”.

B4: MSLN20-28 clone 7 (TCR, V domains shown)
Valpha: ILNVEQSPQSLHVQEGDSTNFTCSFPSSNFYALHWYRWETAKSPEALFVMTLNGDEKKKGRISATLNTKEGYSYLYIKGSQPEDSATYLCAFYMDSNYQLIWGAGTKLIIKP
Vbeta: NAGVTQTPKFQVLKTGQSMTLQCAQDMNHNSMYWYRQDPGMGLRLIYYSASEGTTDKGEVPNGYNVSRLNKREFSLRLESAAPSQTSVYFCASSEWTAEQYFGPGTRLTVT
In the case of B4, in assay [1], the binding result is “recognises”.

B5: MSLN530-538 clone 4 (TCR, V domains shown)
Valpha: AQTVTQSQPEMSVQEAETVTLSCTYDTSESDYYLFWYKQPPSRQMILVIRQEAYKQQNATENRFSVNFQKAAKSFSLKISDSQLGDAAMYFCAYLGTGTYKYIFGTGTRLKVLA
Vbeta: EAQVTQNPRYLITVTGKKLTVTCSQNMNHEYMSWYRQDPGLGLRQIYYSMNVEVTDKGDVPEGYKVSRKEKRNFPLILESPSPNQTSLYFCASSSGGLGYTFGSGTRLTVV
As for B5, the binding result in assay [2] is listed as “recognises”.
